Experimental findings from US20250320312A1 (OXITOPE PHARMA B V, published 2025) are described below.

Changes are numbered by the printed parent chain.

T1: Peptide 4: Biotin-AGGGGSGGGGSGGGGSAAA-Tyr-acid (N-terminal biotin; C-terminal acid; no PC)
T1 construct: control peptide without PC
T1 peptide: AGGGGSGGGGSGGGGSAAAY

T2: Peptide 8: Biotin-AEAAAKEAAAKEAAAKEAAAKAAA-Tyr-acid (N-terminal biotin; C-terminal acid; no PC)
T2 construct: control peptide without PC
T2 peptide: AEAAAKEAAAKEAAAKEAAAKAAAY

B1: PcOxP_DB04_A12 (scFv, V domains shown)
VH: EVQLLESGGGLVQPGGSLRLSCAASGFTFSDGYMEWVRQAPGKGLEWVAASRNKWNDYTTEYADSVKGRFTISRDNSKNTLYLQMNSLRAEDTAVYYCARDYYGSSYWYFDVWGQGTLVTVSS
VL: DIQMTQSPSSLSASVGDRVTITCTASESLYSSKHKVHYLAWYQQKPGKAPKLLIYGASNRYDGVPSRFSGSGSGTDFTLTISSLQPEDFATYYCAQFYSYPLTFGGGTKVEIK
notes: scFv in periplasmic extract
B2: PcOxP_DB03_H03 (scFv, V domains shown)
VH: B1 VH with F29G, G32F
VL: DIQMTQSPSSLSASVGDRVTITCTASESLSSSKHKHYLAWYQQKPGKAPKLLIYGASSRYSGVPSRFSGSGSGTDFTLTISSLQPEDFATYYCAQFYSYPLTFGGGTKVEIK
notes: scFv in periplasmic extract
B3: PcOxP_DB01_A03 (scFv, V domains shown)
VH: B1 VH with G32Y, W55A
VL: DIVMTQSPDSLAVSLGERATINCTASESLYSSKHKVHYLAWYQQKPGQPPKLLIYGASNRYIGVPDRFSGSGSGTDFTLTISSLQAEDVAVYYCAQFYSYPLTFGGGTKVEIK
notes: scFv in periplasmic extract
B4: PcOxP_DB04_H03 (scFv, V domains shown)
VH: B1 VH with T28P, G32F, W55A
VL: DIQMTQSPSSLSASVGDRVTITCRASESLYSSLHKYLAWYQQKPGKAPKLLIYGASNLQIGVPSRFSGSGSGTDFTLTISSLQPEDFATYYCAQFYSYPLTFGGGTKVEIK
notes: scFv in periplasmic extract
B5: PcOxP_DB04_C08 (scFv, V domains shown)
VH: B1 VH with F27E, G32F, W55A
VL: B1 VL with K35G, D62I, S99Q
notes: scFv in periplasmic extract
B6: PcOxP_DB01_B12 (scFv, V domains shown)
VH: B1 VH with D31S, G32Y, W55G, D57S
VL: B3 VL with A95G
notes: scFv in periplasmic extract
B7: PcOxP_DB04_D08 (scFv, V domains shown)
VH: B1 VH with G32H, W55A
VL: B1 VL with Y61A, D62I, S99T
notes: scFv in periplasmic extract
B8: PcOxP_DB01_B03 (scFv, V domains shown)
VH: B1 VH with D31S, G32Y, W55A
VL: B3 VL
notes: scFv in periplasmic extract
B9: PcOxP_DB01_C09 (scFv, V domains shown)
VH: B1 VH with G32F, W55A
VL: B3 VL with E27Q, L29V, H34N
notes: scFv in periplasmic extract
B10: PcOxP_DB01_C07 (scFv, V domains shown)
VH: B1 VH with G32Y, W55A
VL: B3 VL with I62D
notes: scFv in periplasmic extract
B11: PcOxP_DB04_F11 (scFv, V domains shown)
VH: B1 VH with F29G, G32F, N53G, W55G, D57S, Y107T
VL: B1 VL with D62A, A95G
notes: scFv in periplasmic extract
B12: PcOxP_DB04_F06 (scFv, V domains shown)
VH: B1 VH with F27D, G32F, W55A
VL: B1 VL with Y30S, D62I
notes: scFv in periplasmic extract
B13: PcOxP_DB04_H10 (scFv, V domains shown)
VH: B1 VH with F27A, G32F, M34V, W55A
VL: B1 VL with A57P, D62I
notes: scFv in periplasmic extract
B14: PcOxP_DB04_H08 (scFv, V domains shown)
VH: B1 VH with W55A
VL: B1 VL with R60L, D62S
notes: scFv in periplasmic extract
B15: PcOxP_DB01_A05 (scFv, V domains shown)
VH: B1 VH with G32Y, W55A, S105N
VL: B3 VL
notes: scFv in periplasmic extract
B16: PcOxP_DB04_H07 (scFv, V domains shown)
VH: B1 VH with S30E, G32F, W55A
VL: B1 VL with Y61V, D62I
notes: scFv in periplasmic extract
B17: PcOxP_DB01_B10 (scFv, V domains shown)
VH: B1 VH with G32F, W55A, E61T, Y107H
VL: B3 VL with H34G, A95V
notes: scFv in periplasmic extract
B18: PcOxP_DB04_B08 (scFv, V domains shown)
VH: B1 VH with G32D, W55A
VL: B1 VL with A57L, D62I, Y98F
notes: scFv in periplasmic extract
B19: PcOxP_DB01_B06 (scFv, V domains shown)
VH: B1 VH with D31S, G32Y, W55Y, Y107T
VL: B3 VL
notes: scFv in periplasmic extract
B20: PcOxP_DB04_G06 (scFv, V domains shown)
VH: B1 VH with G32F, N53W, W55A, G104E
VL: B1 VL with E27Q, D62I, S99V
notes: scFv in periplasmic extract
B21: PcOxP_DB01_B02 (scFv, V domains shown)
VH: B1 VH with F27G, G32F, W55A, D57S, E61A
VL: B3 VL
notes: scFv in periplasmic extract
B22: PcOxP_DB01_A08 (scFv, V domains shown)
VH: B1 VH with F29Q, G32F, S51I, W55A, D57S
VL: B3 VL with L29V, H34N, V36K
notes: scFv in periplasmic extract
B23: PcOxP_DB01_A04 (scFv, V domains shown)
VH: B1 VH with F29H, G32F, W55A
VL: B3 VL
notes: scFv in periplasmic extract
B24: PcOxP_DB04_C03 (scFv, V domains shown)
VH: B1 VH with F29T, G32F, W55A, D57S
VL: B1 VL with N59S, R60L, D62S, S99E
notes: scFv in periplasmic extract

The target of one test is T1, Peptide 4: …. Kind of test: scFv ELISA. An outline of the steps: (§1)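 Bound scFv was read as OD450 after HRP–anti-V5 detection, TMB development and HCl stop. PPE with BSA was incubated 1 h at RT on BSA-blocked wells coated overnight at 4° C. with peptide, or on streptavidin wells loaded 1 h with biotinylated PC-peptides at 1 μg/mL.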
For orientation: ELISA stands for enzyme-linked immunosorbent assay.
The molecule B1 yielded an OD450 of 0.07 OD450.
Still for that read-out and setting: the value for B2 was 0.07 OD450; that for B3 was 0.05 OD450; that for B4 was 0.07 OD450.
Same read-out and setting: the value for B5 was 0.05 OD450; that for B6 was 0.06 OD450.
The same measure, in the same setting: next, B7: 0.07 OD450; B8: 0.05 OD450.
Consider B9, for which the OD450 was determined as 0.05 OD450.
Still for that read-out and setting: next, B10: 0.04 OD450; B11: 0.07 OD450; B12: 0.06 OD450.
Still for that read-out and setting: next, B13: 0.08 OD450; B14: 0.07 OD450.
Consider B15, for which the OD450 came out at 0.04 OD450.
The molecule B16 gave an OD450 of 0.06 OD450.
B17 came in with an OD450 of 0.05 OD450.
Same read-out and setting: next, B18: 0.06 OD450.
Still for that read-out and setting: the value for B19 was 0.05 OD450; that for B20 was 0.07 OD450.
Consider B21, for which the OD450 amounted to 0.06 OD450.
Regarding B22, the OD450 came out at 0.05 OD450.
On the same count and under the same terms, the value for B23 was 0.04 OD450; that for B24 was 0.06 OD450.

The target of a further test is T2, Peptide 8: …. Kind of test: scFv ELISA. An outline of the steps: as §1
B1 showed an OD450 of 0.06 OD450.
For B2, the OD450 stood at 0.07 OD450.
On the same count and under the same terms, next, B3: 0.04 OD450; B4: 0.08 OD450; B5: 0.06 OD450.
B6 returned an OD450 of 0.05 OD450.
B7 gave an OD450 of 0.07 OD450.
On to B8, for which the OD450 was found to be 0.05 OD450.
Regarding B9, the OD450 turned out to be 0.05 OD450.
Molecule B10 gave an OD450 of 0.04 OD450.
Consider B11, for which the OD450 came out at 0.06 OD450.
The same measure, in the same setting: next, B12: 0.06 OD450; B13: 0.07 OD450; B14: 0.06 OD450.
Still for that read-out and setting: the value for B15 was 0.04 OD450; that for B16 was 0.05 OD450; that for B17 was 0.04 OD450.
As for B18, the OD450 is 0.05 OD450.
The same measure, in the same setting: the value for B19 was 0.05 OD450; that for B20 was 0.07 OD450; that for B21 was 0.05 OD450.
On to B22, for which the OD450 is 0.05 OD450.
On to B23, for which the OD450 worked out at 0.04 OD450.
On to B24, for which the OD450 was 0.06 OD450.

A further test addresses Peptide 1: Biotin-…-[Tyr(PC)]-acid. Briefly: scFv ELISA.
B1: the OD450 was determined as 0.71 OD450.
The molecule B2 came in with an OD450 of 0.27 OD450.
On the same count and under the same terms, the value for B3 was 0.86 OD450.
Molecule B4 came in with an OD450 of 0.8 OD450.
Still for that read-out and setting: next, B5: 0.69 OD450; B6: 0.56 OD450.
Still for that read-out and setting: next, B7: 1.6 OD450; B8: 0.82 OD450; B9: 0.27 OD450.
Same read-out and setting: next, B10: 0.53 OD450; B11: 0.58 OD450.
Consider B12, for which the OD450 came to 0.75 OD450.
On the same count and under the same terms, next, B13: 0.54 OD450.
Same read-out and setting: the value for B14 was 0.85 OD450; that for B15 was 0.83 OD450.
On the same count and under the same terms, the value for B16 was 0.58 OD450; that for B17 was 0.52 OD450.
For B18, the OD450 stood at 1.33 OD450.
Still for that read-out and setting: the value for B19 was 0.79 OD450; that for B20 was 1.03 OD450; that for B21 was 0.68 OD450.
In turn, B22 displayed an OD450 of 0.16 OD450.
As to B23, the OD450 came out at 0.31 OD450.
The same measure, in the same setting: next, B24: 1.34 OD450.

In the next test the target is Peptide 5: Biotin-…-[Tyr(PC)]-acid. Kind of test: scFv ELISA.
Turning to B1, the OD450 is 1.38 OD450.
Same read-out and setting: the value for B2 was 1.32 OD450; that for B3 was 1.38 OD450.
Still for that read-out and setting: the value for B4 was 1.05 OD450; that for B5 was 1.07 OD450; that for B6 was 1.19 OD450.
The same measure, in the same setting: the value for B7 was 1.96 OD450.
Molecule B8 registered an OD450 of 1.25 OD450.
Same read-out and setting: the value for B9 was 0.94 OD450.
Regarding B10, the OD450 is 1.1 OD450.
B11: the OD450 is 1.27 OD450.
On the same count and under the same terms, next, B12: 1.3 OD450; B13: 1.01 OD450; B14: 1.42 OD450.
On the same count and under the same terms, the value for B15 was 1.28 OD450; that for B16 was 1.02 OD450.
On the same count and under the same terms, next, B17: 1.11 OD450; B18: 1.56 OD450; B19: 1.45 OD450.
For B20, the OD450 was 1.12 OD450.
Same read-out and setting: the value for B21 was 1.41 OD450; that for B22 was 1.12 OD450.
In turn, B23 registered an OD450 of 0.75 OD450.
On the same count and under the same terms, the value for B24 was 1.87 OD450.

The target of a further test is BSA (UniProt P02769). Kind of test: scFv ELISA.
BSA, sequence (P02769 25-607 limits assumed): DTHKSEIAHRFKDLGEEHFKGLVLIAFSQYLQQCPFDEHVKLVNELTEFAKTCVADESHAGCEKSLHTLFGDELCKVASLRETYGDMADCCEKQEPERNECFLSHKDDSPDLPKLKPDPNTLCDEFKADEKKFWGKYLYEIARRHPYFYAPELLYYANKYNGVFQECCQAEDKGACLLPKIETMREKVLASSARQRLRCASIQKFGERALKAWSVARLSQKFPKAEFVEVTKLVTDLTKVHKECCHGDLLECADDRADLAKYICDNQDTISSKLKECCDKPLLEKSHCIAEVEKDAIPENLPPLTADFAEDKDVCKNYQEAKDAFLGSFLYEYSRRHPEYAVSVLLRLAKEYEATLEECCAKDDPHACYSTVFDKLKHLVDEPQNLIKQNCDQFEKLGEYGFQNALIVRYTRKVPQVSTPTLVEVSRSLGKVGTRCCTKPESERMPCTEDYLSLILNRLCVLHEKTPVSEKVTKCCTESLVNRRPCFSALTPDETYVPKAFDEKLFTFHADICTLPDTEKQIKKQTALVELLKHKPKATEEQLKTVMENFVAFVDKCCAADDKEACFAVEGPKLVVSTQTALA
Molecule B1 had an OD450 of 0.12 OD450.
Same read-out and setting: next, B2: 0.12 OD450; B3: 0.07 OD450; B4: 0.1 OD450.
Regarding B5, the OD450 turned out to be 0.08 OD450.
As to B6, the OD450 turned out to be 0.09 OD450.
As to B7, the OD450 is 0.12 OD450.
The same measure, in the same setting: next, B8: 0.08 OD450.
On the same count and under the same terms, the value for B9 was 0.07 OD450; that for B10 was 0.05 OD450; that for B11 was 0.1 OD450.
On the same count and under the same terms, the value for B12 was 0.1 OD450; that for B13 was 0.1 OD450.
The molecule B14 had an OD450 of 0.09 OD450.
On the same count and under the same terms, the value for B15 was 0.06 OD450; that for B16 was 0.09 OD450.
Still for that read-out and setting: next, B17: 0.08 OD450; B18: 0.11 OD450.
Still for that read-out and setting: next, B19: 0.08 OD450; B20: 0.11 OD450.
On to B21, for which the OD450 worked out at 0.09 OD450.
Still for that read-out and setting: next, B22: 0.09 OD450.
Still for that read-out and setting: next, B23: 0.07 OD450; B24: 0.1 OD450.
